Assay results: patent publication US20020165128A1, “Compositions and methods for proteolytically inactivating infectious agents using lactoferrin and related molecules” (priority 1998, published 2002)
Read-outs that look alike come from different tables or passages of the source.

Experiments:
[1] = biological target: T1, H. influenzae Hap adhesin (Haemophilus influenzae, UniProt P45387, S243A); format: cell-based; conditions: DB117/HapS243A, 430 nM
T1 construct: expressed in transfected cells; host or cells: H. influenzae strain DB117 carrying pJS106
T1 sequence (P45387 26-1394 S243A): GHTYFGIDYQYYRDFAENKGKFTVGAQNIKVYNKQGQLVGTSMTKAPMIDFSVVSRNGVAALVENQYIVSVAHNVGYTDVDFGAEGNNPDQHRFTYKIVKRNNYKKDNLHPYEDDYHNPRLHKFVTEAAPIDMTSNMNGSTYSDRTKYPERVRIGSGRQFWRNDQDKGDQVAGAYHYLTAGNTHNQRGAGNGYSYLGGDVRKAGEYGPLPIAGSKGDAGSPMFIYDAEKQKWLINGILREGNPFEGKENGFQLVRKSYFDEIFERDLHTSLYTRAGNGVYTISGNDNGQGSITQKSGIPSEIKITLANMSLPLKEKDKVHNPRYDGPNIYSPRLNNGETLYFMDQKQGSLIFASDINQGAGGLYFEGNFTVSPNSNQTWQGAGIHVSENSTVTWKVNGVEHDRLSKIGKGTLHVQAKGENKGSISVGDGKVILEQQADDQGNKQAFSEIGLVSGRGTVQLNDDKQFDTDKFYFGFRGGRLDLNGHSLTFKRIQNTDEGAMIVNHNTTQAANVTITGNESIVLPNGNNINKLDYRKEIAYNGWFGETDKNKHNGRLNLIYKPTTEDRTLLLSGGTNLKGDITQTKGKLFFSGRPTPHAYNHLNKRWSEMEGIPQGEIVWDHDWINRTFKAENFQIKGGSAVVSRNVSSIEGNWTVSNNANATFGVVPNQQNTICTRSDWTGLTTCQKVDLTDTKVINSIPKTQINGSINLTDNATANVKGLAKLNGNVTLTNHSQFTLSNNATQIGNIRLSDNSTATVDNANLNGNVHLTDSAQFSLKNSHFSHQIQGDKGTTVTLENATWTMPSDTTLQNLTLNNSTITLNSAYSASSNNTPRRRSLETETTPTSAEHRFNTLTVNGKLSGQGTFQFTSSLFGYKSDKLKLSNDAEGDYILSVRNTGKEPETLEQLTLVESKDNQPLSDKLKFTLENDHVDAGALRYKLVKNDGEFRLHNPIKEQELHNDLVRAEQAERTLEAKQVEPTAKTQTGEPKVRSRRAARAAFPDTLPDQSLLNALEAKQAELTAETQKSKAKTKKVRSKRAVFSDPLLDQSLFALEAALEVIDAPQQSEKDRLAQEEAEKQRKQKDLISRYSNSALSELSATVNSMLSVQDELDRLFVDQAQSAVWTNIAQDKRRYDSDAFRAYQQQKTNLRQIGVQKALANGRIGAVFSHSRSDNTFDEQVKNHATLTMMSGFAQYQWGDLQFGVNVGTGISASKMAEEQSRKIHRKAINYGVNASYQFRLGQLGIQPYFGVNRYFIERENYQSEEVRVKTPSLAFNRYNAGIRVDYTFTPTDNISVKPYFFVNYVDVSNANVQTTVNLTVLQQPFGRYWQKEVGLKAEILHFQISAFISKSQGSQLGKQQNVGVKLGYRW

[2] = tested on: H. influenzae Hap adhesin; format: cell-based, Haemophilus influenzae; conditions: DB117 derivatives, 13 μM
[3] = biological target: H. influenzae IgA1 protease precursor (Haemophilus influenzae, UniProt P44969, S288V)
Protocol: The Rd strain was grown in brain heart-infusion broth supplemented with hemin (10 μg/ml) and nicotinamide adenine dinucleotide (2 μg/ml) to mid-log phase, and then harvested by centrifugation.
All samples were collected in sterile beakers; within 6 hours of collection they were centrifuged at 10,000×g for 20 min at 4 C to remove lipids and cells. The resulting whey was stored at −70 C and was prepared for use by thawing slowly, without further modifications. 2×10^9 H. influenzae cells were resuspended in 1 ml of the unmodified human milk whey and incubated at 37 C with gentle mixing. Samples were removed at intervals between 2 minutes and 1 hour. Whole cells and supernatants were examined by Western immunoblot using antisera directed against all domains of the preprotein.
Mid-log phase Rd3-13 bacteria were incubated in milk whey, and aliquots were removed at the times shown.
The antiserum used was anti-Rd3-13, which reacts with IgAp, IgAa, and IgAb.

[4] = cited from earlier work

H. influenzae IgA1 protease precursor, sequence (P44969 26-1694 S288V): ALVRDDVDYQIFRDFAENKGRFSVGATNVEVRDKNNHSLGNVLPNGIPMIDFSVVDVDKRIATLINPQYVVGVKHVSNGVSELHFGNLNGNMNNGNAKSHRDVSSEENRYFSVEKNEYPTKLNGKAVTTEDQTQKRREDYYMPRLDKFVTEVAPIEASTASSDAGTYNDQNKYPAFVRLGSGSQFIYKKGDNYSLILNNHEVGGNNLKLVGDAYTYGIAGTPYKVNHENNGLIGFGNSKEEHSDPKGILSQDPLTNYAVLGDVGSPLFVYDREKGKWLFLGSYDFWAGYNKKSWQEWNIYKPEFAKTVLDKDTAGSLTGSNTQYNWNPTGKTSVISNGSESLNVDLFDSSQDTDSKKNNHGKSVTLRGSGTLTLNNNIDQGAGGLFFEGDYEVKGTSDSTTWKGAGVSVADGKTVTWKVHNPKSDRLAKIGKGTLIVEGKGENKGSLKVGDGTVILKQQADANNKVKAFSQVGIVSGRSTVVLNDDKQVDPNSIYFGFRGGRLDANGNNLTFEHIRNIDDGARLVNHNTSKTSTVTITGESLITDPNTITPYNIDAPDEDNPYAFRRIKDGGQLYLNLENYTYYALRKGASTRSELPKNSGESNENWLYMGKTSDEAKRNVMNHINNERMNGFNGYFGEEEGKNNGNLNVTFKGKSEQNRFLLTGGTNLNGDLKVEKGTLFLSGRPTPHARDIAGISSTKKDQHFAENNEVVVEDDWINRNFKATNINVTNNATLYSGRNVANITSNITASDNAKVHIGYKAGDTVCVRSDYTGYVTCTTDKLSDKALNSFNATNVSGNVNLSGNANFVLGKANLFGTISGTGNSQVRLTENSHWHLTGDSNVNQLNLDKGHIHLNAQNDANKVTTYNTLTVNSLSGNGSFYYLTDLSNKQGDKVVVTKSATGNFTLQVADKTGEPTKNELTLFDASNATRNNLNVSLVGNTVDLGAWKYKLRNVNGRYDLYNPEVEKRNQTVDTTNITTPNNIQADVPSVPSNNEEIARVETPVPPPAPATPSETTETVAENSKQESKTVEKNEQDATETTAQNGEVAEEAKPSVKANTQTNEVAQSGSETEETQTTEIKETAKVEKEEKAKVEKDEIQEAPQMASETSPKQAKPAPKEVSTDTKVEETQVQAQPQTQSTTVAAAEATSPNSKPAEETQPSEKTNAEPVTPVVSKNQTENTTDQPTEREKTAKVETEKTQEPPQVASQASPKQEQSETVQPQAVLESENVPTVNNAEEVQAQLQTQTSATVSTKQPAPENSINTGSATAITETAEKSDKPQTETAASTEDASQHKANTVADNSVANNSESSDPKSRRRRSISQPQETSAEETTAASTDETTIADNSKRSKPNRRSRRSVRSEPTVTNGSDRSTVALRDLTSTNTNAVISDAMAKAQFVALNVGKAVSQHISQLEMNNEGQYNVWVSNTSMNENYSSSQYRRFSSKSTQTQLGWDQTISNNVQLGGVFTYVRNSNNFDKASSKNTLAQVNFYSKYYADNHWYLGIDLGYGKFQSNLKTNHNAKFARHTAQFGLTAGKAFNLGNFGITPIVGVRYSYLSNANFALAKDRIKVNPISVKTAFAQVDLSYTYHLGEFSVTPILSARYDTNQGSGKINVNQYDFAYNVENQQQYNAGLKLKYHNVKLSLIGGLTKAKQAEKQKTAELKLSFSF

Row | Molecule | proteolysis of Hap [1] | Hap degradation products [2] | removal of IgA protease precursor ([3]; Rd3-13, after 15 minutes) | removal of IgA protease precursor ([3]; Rd3-13, after two hours) | shelf life ([4]; original sealed packaging, stored below 20° C., max 75% relative humidity) | Iron binding: spectrophotometric method at 465 nm (on solids) ([4]; typical analysis) [%] | pH (2%, 20° C.) ([4]; typical analysis)
1 | A. awamori recombinant lactoferrin: Aspergillus awamori recombinant human lactoferrin provided by Agennix Corporation (protein, UniProt P02788 20-710, looked up, expressed in Aspergillus awamori) Lactotransferrin: GRRRSVQWCAVSQPEATKCFQWQRNMRKVRGPPVSCIKRDSPIQCIQAIAENRADAVTLDGGFIYEAGLAPYKLRPVAAEVYGTERQPRTHYYAVAVVKKGGSFQLNELQGLKSCHTGLRRTAGWNVPIGTLRPFLNWTGPPEPIEAAVARFFSASCVPGADKGQFPNLCRLCAGTGENKCAFSSQEPYFSYSGAFKCLRDGAGDVAFIRESTVFEDLSDEAERDEYELLCPDNTRKPVDKFKDCHLARVPSHAVVARSVNGKEDAIWNLLRQAQEKFGKDKSPKFQLFGSPSGQKDLLFKDSAIGFSRVPPRIDSGLYLGSGYFTAIQNLRKSEEEVAARRARVVWCAVGEQELRKCNQWSGLSEGSVTCSSASTTEDCIALVLKGEADAMSLDGGYVYTAGKCGLVPVLAENYKSQQSSDPDPNCVDRPVEGYLAVAVVRRSDTSLTWNSVKGKKSCHTAVDRTAGWNIPMGLLFNQTGSCKFDEYFSQSCAPGSDPRSNLCALCIGDEQGENKCVPNSNERYYGYTGAFRCLAENAGDVAFVKDVTVLQNTDGNNNEAWAKDLKLADFALLCLDGKRKPVTEARSCHLAMAPNHAVVSRMDKVERLKQVLLHQQAKFGRNGSDCPDKFCLFQSETKNLLFNDNTECLARLHGKTTYEKYLGPQYVAGITNLKKCSTSPLLEACEFLRK | partial proteolysis of Hap | generated two products |  |  |  |  | 
2 | DMV Lactoferrin: commercially available bovine milk lactoferrin powder, DMV International Nutritionals, Lot 10022340 (protein, UniProt P24627 20-708, looked up) Lactotransferrin: APRKNVRWCTISQPEWFKCRRWQWRMKKLGAPSITCVRRAFALECIRAIAEKKADAVTLDGGMVFEAGRDPYKLRPVAAEIYGTKESPQTHYYAVAVVKKGSNFQLDQLQGRKSCHTGLGRSAGWIIPMGILRPYLSWTESLEPLQGAVAKFFSASCVPCIDRQAYPNLCQLCKGEGENQCACSSREPYFGYSGAFKCLQDGAGDVAFVKETTVFENLPEKADRDQYELLCLNNSRAPVDAFKECHLAQVPSHAVVARSVDGKEDLIWKLLSKAQEKFGKNKSRSFQLFGSPPGQRDLLFKDSALGFLRIPSKVDSALYLGSRYLTTLKNLRETAEEVKARYTRVVWCAVGPEEQKKCQQWSQQSGQNVTCATASTTDDCIVLVLKGEADALNLDGGYIYTAGKCGLVPVLAENRKSSKHSSLDCVLRPTEGYLAVAVVKKANEGLTWNSLKDKKSCHTAVDRTAGWNIPMGLIVNQTGSCAFDEFFSQSCAPGADPKSRLCALCAGDDQGLDKCVPNSKEKYYGYTGAFRCLAEDVGDVAFVKNDTVWENTNGESTADWAKNLNREDFRLLCLDGTRKPVTEAQSCHLAVAPNHAVVSRSDRAAHVKQVLLHQQALFGKNGKNCPDKFCLFKSETKNLLFNDNTECLAKLGGRPTYEEYLGTEYVTAIANLKKCSTSPLLEACAFLTR |  |  | virtually no precursor was removed | only a trace of the precursor was removed | at least three years | 76 | 5.7
